Reference: publication PMC4156824 (Molecular cell, 2014)

B1: Mcm3 (Flag-tagged subunit of Mcm2-7) (natural protein, S. cerevisiae, UniProt P24279 1-971, looked up)
chain: MEGSTGFDGDATTFFAPDAVFGDRVRRFQEFLDTFTSYRDSVRSIQVYNSNNAANYNDDQDDADERDLLGDDDGDDLEKEKKAASSTSLNILPHRIIISLDDLREFDRSFWSGILVEPAYFIPPAEKALTDLADSMDDVPHPNASAVSSRHPWKLSFKGSFGAHALSPRTLTAQHLNKLVSVEGIVTKTSLVRPKLIRSVHYAAKTGRFHYRDYTDATTTLTTRIPTPAIYPTEDTEGNKLTTEYGYSTFIDHQRITVQEMPEMAPAGQLPRSIDVILDDDLVDKTKPGDRVNVVGVFKSLGAGGMNQSNSNTLIGFKTLILGNTVYPLHARSTGVAARQMLTDFDIRNINKLSKKKDIFDILSQSLAPSIYGHDHIKKAILLMLMGGVEKNLENGSHLRGDINILMVGDPSTAKSQLLRFVLNTASLAIATTGRGSSGVGLTAAVTTDRETGERRLEAGAMVLADRGVVCIDEFDKMTDVDRVAIHEVMEQQTVTIAKAGIHTTLNARCSVIAAANPVFGQYDVNRDPHQNIALPDSLLSRFDLLFVVTDDINEIRDRSISEHVLRTHRYLPPGYLEGEPVRERLNLSLAVGEDADINPEEHSNSGAGVENEGEDDEDHVFEKFNPLLQAGAKLAKNKGNYNGTEIPKLVTIPFLRKYVQYAKERVIPQLTQEAINVIVKNYTDLRNDDNTKKSPITARTLETLIRLATAHAKVRLSKTVNKVDAKVAANLLRFALLGEDIGNDIDEEESEYEEALSKRSPQKSPKKRQRVRQPASNSGSPIKSTPRRSTASSVNATPSSARRILRFQDDEQNAGEDDNDIMSPLPADEEAELQRRLQLGLRVSPRRREHLHAPEEGSSGPLTEVGTPRLPNVSSAGQDDEQQQSVISFDNVEPGTISTGRLSLISGIIARLMQTEIFEEESYPVASLFERINEELPEEEKFSAQEYLAGLKIMSDRNNLMVADDKVWRV

Key:
[1] = target: B1; assay: co-IP
Mcm6 = Mcm6 (S. cerevisiae, UniProt P53091 1-1017); assay: co-IP
Sequence of Mcm6 (P53091 whole entry): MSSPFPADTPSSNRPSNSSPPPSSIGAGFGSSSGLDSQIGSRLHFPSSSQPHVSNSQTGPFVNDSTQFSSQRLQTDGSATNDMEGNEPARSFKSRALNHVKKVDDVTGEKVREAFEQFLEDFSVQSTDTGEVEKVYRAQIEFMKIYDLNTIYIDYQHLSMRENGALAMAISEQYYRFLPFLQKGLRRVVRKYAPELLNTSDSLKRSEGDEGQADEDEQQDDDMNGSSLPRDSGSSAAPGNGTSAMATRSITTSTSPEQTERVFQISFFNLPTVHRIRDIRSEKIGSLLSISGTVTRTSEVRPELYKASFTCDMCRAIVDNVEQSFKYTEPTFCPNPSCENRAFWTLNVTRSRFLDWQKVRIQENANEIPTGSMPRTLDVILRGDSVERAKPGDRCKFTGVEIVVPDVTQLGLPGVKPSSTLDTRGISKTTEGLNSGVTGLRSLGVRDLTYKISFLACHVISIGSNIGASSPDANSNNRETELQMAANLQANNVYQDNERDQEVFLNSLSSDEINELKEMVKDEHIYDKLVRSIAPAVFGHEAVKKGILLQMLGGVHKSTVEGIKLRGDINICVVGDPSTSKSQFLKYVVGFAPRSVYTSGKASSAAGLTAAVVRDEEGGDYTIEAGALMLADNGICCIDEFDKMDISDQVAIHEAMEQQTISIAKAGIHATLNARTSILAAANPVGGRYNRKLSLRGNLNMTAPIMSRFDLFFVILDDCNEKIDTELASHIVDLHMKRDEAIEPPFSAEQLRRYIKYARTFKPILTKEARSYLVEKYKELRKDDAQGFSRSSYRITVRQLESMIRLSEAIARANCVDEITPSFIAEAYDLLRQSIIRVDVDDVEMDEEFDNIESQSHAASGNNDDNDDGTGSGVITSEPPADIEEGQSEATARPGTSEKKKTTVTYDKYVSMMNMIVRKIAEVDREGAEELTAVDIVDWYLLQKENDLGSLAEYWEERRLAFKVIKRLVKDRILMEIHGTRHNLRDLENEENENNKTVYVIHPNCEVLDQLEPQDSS

Row | Binder | binding result [1] | binding result (Mcm6)
1 | Mcm2 (natural protein, S. cerevisiae, UniProt P29469 1-868, looked up) MSDNRRRRREEDDSDSENELPPSSPQQHFRGGMNPVSSPIGSPDMINPEGDDNEVDDVPDIDEVEEQMNEVDLMDDNMYEDYAADHNRDRYDPDQVDDREQQELSLSERRRIDAQLNERDRLLRNVAYIDDEDEEQEGAAQLDEMGLPVQRRRRRRQYEDLENSDDDLLSDMDIDPLREELTLESLSNVKANSYSEWITQPNVSRTIARELKSFLLEYTDETGRSVYGARIRTLGEMNSESLEVNYRHLAESKAILALFLAKCPEEMLKIFDLVAMEATELHYPDYARIHSEIHVRISDFPTIYSLRELRESNLSSLVRVTGVVTRRTGVFPQLKYVKFNCLKCGSILGPFFQDSNEEIRISFCTNCKSKGPFRVNGEKTVYRNYQRVTLQEAPGTVPPGRLPRHREVILLADLVDVSKPGEEVEVTGIYKNNYDGNLNAKNGFPVFATIIEANSIKRREGNTANEGEEGLDVFSWTEEEEREFRKISRDRGIIDKIISSMAPSIYGHRDIKTAVACSLFGGVPKNVNGKHSIRGDINVLLLGDPGTAKSQILKYVEKTAHRAVFATGQGASAVGLTASVRKDPITKEWTLEGGALVLADKGVCLIDEFDKMNDQDRTSIHEAMEQQSISISKAGIVTTLQARCSIIAAANPNGGRYNSTLPLAQNVSLTEPILSRFDILCVVRDLVDEEADERLATFVVDSHVRSHPENDEDREGEELKNNGESAIEQGEDEINEQLNARQRRLQRQRKKEEEISPIPQELLMKYIHYARTKIYPKLHQMDMDKVSRVYADLRRESISTGSFPITVRHLESILRIAESFAKMRLSEFVSSYDLDRAIKVVVDSFVDAQKVSVRRQLRRSFAIYTLGH | binds | –
2 | Mcm4 (natural protein, S. cerevisiae, UniProt P30665 1-933, looked up) MSQQSSSPTKEDNNSSSPVVPNPDSVPPQLSSPALFYSSSSSQGDIYGRNNSQNLSQGEGNIRAAIGSSPLNFPSSSQRQNSDVFQSQGRQGRIRSSASASGRSRYHSDLRSDRALPTSSSSLGRNGQNRVHMRRNDIHTSDLSSPRRIVDFDTRSGVNTLDTSSSSAPPSEASEPLRIIWGTNVSIQECTTNFRNFLMSFKYKFRKILDEREEFINNTTDEELYYIKQLNEMRELGTSNLNLDARNLLAYKQTEDLYHQLLNYPQEVISIMDQTIKDCMVSLIVDNNLDYDLDEIETKFYKVRPYNVGSCKGMRELNPNDIDKLINLKGLVLRSTPVIPDMKVAFFKCNVCDHTMAVEIDRGVIQEPARCERIDCNEPNSMSLIHNRCSFADKQVIKLQETPDFVPDGQTPHSISLCVYDELVDSCRAGDRIEVTGTFRSIPIRANSRQRVLKSLYKTYVDVVHVKKVSDKRLDVDTSTIEQELMQNKVDHNEVEEVRQITDQDLAKIREVAAREDLYSLLARSIAPSIYELEDVKKGILLQLFGGTNKTFTKGGRYRGDINILLCGDPSTSKSQILQYVHKITPRGVYTSGKGSSAVGLTAYITRDVDTKQLVLESGALVLSDGGVCCIDEFDKMSDSTRSVLHEVMEQQTISIAKAGIITTLNARSSILASANPIGSRYNPNLPVTENIDLPPPLLSRFDLVYLVLDKVDEKNDRELAKHLTNLYLEDKPEHISQDDVLPVEFLTMYISYAKEHIHPIITEAAKTELVRAYVGMRKMGDDSRSDEKRITATTRQLESMIRLAEAHAKMKLKNVVELEDVQEAVRLIRSAIKDYATDPKTGKIDMNLVQTGKSVIQRKLQEDLSREIMNVLKDQASDSMSFNELIKQINEHSQDRVESSDIQEALSRLQQEDKVIVLGEGVRRSVRLNNRV | binds | –
3 | B1 | – | binds
4 | Mcm7 (natural protein, S. cerevisiae, UniProt P38132 1-845, looked up) MSAALPSIQLPVDYNNLFNEITDFLVTFKQDTLSSDATRNENEDENLDAENIEQHLLEKGPKYMAMLQKVANRELNSVIIDLDDILQYQNEKFLQGTQADDLVSAIQQNANHFTELFCRAIDNNMPLPTKEIDYKDDVLDVILNQRRLRNERMLSDRTNEIRSENLMDTTMDPPSSMNDALREVVEDETELFPPNLTRRYFLYFKPLSQNCARRYRKKAISSKPLSVRQIKGDFLGQLITVRGIITRVSDVKPAVEVIAYTCDQCGYEVFQEVNSRTFTPLSECTSEECSQNQTKGQLFMSTRASKFSAFQECKIQELSQQVPVGHIPRSLNIHVNGTLVRSLSPGDIVDVTGIFLPAPYTGFKALKAGLLTETYLEAQFVRQHKKKFASFSLTSDVEERVMELITSGDVYNRLAKSIAPEIYGNLDVKKALLLLLVGGVDKRVGDGMKIRGDINVCLMGDPGVAKSQLLKAICKISPRGVYTTGKGSSGVGLTAAVMKDPVTDEMILEGGALVLADNGICCIDEFDKMDESDRTAIHEVMEQQTISISKAGINTTLNARTSILAAANPLYGRYNPRLSPLDNINLPAALLSRFDILFLMLDIPSRDDDEKLAEHVTYVHMHNKQPDLDFTPVEPSKMREYIAYAKTKRPVMSEAVNDYVVQAYIRLRQDSKREMDSKFSFGQATPRTLLGIIRLSQALAKLRLADMVDIDDVEEALRLVRVSKESLYQETNKSKEDESPTTKIFTIIKKMLQETGKNTLSYENIVKTVRLRGFTMLQLSNCIQEYSYLNVWHLINEGNTLKFVDDGTMDTDQEDSLVSTPKLAPQTTASANVSAQDSDIDLQDA | binds | –
